In article PMC2174052 (The Journal of Cell Biology, 2002):

B1: GST–Sec2(aa 1–160)p (domain or fragment)
chain: MDASEEAKRVSIQVTSLSTQLIESVDKQSHLEEQLNKSLKTIASQKAAIENYNQLKEDYNTLKRELSDRDDEVKRLREDIAKENELRTKAEEEADKLNKEVEDLTASLFDEANNMVADARKEKYAIEILNKRLTEQLREKDTLLDTLTLQLKNLKKVMHS
B2: His6–Sec4p (natural protein)
chain: MSGLRTVSASSGNGKSYDSIMKILLIGDSGVGKSCLLVRFVEDKFNPSFITTIGIDFKIKTVDINGKKVKLQLWDTAGQERFRTITTAYYRGAMGIILVYDVTDERTFTNIKQWFKTVNEHANDEAQLLLVGNKSDMETRVVTADQGEALAKELGIPFIESSAKNDDNVNEIFFTLAKLIQEKIDSNKLVGVGNGKEGNISINSGSGNSSKSNCC
B3: His6–Ypt32p (natural protein)
chain: MSNEDYGYDYDYLFKIVLIGDSGVGKSNLLSRFTTDEFNIESKSTIGVEFATRTIEVENKKIKAQIWDTAGQERYRAITSAYYRGAVGALIVYDISKSSSYENCNHWLTELRENADDNVAVGLIGNKSDLAHLRAVPTDEAKNFAMENQMLFTETSALNSDNVDKAFRELIVAIFQMVSKHQVDLSGSGTNNMGSNGAPKGPTISLTPAPKEDKKKKSSNCC

What was measured:
[1] = target: T1, Ypt32p (Saccharomyces cerevisiae, UniProt P51996); experiment: GTP hydrolysis; format: biochemical; details: with stoichiometric Sec2p (GAP activity)
T1 sequence (P51996 2-222): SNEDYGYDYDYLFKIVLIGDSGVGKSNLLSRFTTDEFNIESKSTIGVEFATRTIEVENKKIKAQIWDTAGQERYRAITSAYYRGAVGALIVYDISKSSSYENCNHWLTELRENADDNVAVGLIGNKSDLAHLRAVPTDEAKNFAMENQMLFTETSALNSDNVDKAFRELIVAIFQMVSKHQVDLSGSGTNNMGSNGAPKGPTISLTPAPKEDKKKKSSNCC

[2] = target: B2; experiment: pull-down
[3] = target: T2, GST–Sec2p (full-length) (S. cerevisiae, UniProt P17065 1-759); experiment: pull-down
T2 sequence: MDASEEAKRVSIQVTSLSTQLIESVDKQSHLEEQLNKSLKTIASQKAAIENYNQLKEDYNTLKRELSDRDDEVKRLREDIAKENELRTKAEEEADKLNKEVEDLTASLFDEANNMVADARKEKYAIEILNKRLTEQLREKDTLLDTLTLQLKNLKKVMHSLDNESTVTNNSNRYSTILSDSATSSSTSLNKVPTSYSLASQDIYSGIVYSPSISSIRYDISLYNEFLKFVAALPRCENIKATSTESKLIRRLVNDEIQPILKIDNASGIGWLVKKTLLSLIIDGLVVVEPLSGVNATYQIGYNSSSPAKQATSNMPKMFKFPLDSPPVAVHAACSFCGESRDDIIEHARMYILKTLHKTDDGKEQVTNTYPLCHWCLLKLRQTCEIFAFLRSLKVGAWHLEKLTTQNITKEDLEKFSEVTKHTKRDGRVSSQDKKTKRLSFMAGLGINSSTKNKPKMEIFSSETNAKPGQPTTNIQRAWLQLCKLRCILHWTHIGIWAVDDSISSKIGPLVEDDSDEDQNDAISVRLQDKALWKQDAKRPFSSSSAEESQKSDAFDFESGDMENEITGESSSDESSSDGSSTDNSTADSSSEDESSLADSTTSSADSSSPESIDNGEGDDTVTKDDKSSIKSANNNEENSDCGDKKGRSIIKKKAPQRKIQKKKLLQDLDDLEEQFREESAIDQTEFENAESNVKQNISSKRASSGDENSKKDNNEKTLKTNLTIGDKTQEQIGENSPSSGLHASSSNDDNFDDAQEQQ

[4] = target: T3, GST–Sec2-59(aa 1–374)p (S. cerevisiae, UniProt P17065 1-374); experiment: pull-down
T3 sequence: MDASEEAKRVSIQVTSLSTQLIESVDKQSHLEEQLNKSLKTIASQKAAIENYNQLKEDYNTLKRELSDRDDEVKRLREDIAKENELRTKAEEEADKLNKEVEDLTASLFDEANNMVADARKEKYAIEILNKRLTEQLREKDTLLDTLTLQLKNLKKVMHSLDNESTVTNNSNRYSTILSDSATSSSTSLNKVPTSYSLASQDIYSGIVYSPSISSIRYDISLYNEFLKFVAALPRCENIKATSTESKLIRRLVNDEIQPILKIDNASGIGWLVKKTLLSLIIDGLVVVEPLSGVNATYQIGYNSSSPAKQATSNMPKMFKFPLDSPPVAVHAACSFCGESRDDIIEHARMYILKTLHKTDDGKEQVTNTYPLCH

[5] = target: T4, GST–Sec2-70 (aa 1–508) (S. cerevisiae, UniProt P17065 1-508); experiment: pull-down
T4 sequence: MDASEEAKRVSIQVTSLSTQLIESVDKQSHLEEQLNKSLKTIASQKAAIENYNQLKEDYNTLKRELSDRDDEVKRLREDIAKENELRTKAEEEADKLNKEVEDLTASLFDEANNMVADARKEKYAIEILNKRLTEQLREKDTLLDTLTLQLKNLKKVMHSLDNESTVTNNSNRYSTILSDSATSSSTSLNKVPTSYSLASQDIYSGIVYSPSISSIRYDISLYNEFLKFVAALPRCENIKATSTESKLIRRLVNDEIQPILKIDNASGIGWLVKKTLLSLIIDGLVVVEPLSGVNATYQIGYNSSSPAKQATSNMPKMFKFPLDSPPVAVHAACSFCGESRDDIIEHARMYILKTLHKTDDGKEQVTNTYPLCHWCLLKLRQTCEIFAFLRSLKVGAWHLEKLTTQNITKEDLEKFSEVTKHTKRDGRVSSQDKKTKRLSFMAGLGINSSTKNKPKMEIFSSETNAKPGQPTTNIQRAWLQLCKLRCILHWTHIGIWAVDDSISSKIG

[6] = target: T5, GST–Sec2(aa 161–759) (S. cerevisiae, UniProt P17065 161-759); experiment: pull-down
T5 sequence: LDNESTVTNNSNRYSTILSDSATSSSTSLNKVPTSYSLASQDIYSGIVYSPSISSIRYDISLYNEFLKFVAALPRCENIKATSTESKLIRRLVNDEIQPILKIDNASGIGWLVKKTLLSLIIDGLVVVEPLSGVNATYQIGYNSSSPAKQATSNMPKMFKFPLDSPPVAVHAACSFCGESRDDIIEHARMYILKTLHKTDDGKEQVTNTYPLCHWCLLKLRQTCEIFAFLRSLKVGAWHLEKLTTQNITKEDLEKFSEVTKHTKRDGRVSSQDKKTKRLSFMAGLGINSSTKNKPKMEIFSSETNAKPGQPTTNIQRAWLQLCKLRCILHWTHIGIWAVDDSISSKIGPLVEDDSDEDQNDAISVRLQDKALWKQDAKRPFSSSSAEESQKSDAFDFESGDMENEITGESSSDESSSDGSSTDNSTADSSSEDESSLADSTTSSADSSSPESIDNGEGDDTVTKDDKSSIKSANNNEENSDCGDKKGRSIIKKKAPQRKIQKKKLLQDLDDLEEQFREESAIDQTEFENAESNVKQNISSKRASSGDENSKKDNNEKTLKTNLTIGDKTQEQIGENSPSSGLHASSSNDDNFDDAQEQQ

## Nc1nc2c(ncn2[C@@H]2O[C@H](COP(=O)(O)OP(=O)(O)OP(=O)(O)O)[C@@H](O)[C@H]2O)c(=O)[nH]1 [GTP]
[1]
  GTP hydrolysis: we observed a fivefold increase in GTP hydrolysis by Ypt32p (unpublished data)

## B1
[2]
  binding result: binds

## B2
[3]
  amount bound relative to Ypt32p (fold): 4 fold

## B3
[3]
  binding result: binds
[4]
  binding result: binds
[5]
  binding result: binds
[6]
  binding result: binds
